The target of this experiment is VC1 tandem domains of the receptor for advanced glycation end-products (RAGE). Put plainly: ITC; 100 μM calprotectin (CP*) injected into 50 μM RAGE VC1 in the cell; 25°C; 50 mM HEPES pH 7.5, 150 mM NaCl, 10 mM CaCl2; average of three titrations, independent binding model. (In general: ITC needs no label: the signal is the heat of the interaction.)

Usually Kd stands for the concentration at which binding is half-saturated. Low readings indicate higher affinity, high ones lower affinity. “calprotectin heterodimer of S100A8 (C42S) and S100A9 (C3S) (from UniProt P05109 1-93; P06702 4-114) (complex)” came in with a Kd of 380 nM.
